Laboratory results from US20220411521A1 (Ablynx, published 2022).

T1: human GITR (human, UniProt Q9Y5U5 26-241)
T1 sequence: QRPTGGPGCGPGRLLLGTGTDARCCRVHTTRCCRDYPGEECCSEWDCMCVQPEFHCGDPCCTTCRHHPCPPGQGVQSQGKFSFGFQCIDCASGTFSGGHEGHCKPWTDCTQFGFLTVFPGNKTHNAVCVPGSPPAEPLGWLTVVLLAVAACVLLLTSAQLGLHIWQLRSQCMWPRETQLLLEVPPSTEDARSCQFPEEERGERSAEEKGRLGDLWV

T2: human GITR-Fc (Enzo Life Sciences, ALX-522-061-C050) (human, UniProt Q9Y5U5 26-162)
T2 construct: Bought protein; not shown: Fc part of the bought fusion protein; not described
T2 sequence: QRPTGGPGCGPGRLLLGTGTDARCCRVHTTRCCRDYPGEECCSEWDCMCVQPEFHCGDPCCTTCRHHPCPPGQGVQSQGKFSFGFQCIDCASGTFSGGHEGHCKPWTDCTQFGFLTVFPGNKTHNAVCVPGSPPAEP


Legend:
human GITR [1] = biological target: T1, human GITR; assay: cell-based or functional assay
human GITR [2] = biological target: T1, human GITR; assay: cell-based or functional assay; remark: listed apart in the source
[3] = biological target: T2, human GITR-Fc (Enzo Life Sciences, …); assay: ProteOn XPR36; human GITR-Fc amine-coupled on GLC chip, Nanobody injected at 6 concentrations
Procedure: Affinity was determined on the Proteon XPR36. Briefly, after human GITR-Fc (Enzo Life Sciences, ALX-522-061-C050) was immobilized on a GLC chip via amine coupling, a range of 6 concentrations of different monovalent Nanobodies (representing each family) were injected. The Ko values were determined by using the calculated association rate and dissociation rate constants (Table 1) (ProteOn Manager 3.1.0, Version 3.1.0.6 (2011)).

human GITR [4] = biological target: T1, human GITR; assay: flow cytometry on activated human T cells, anti-FLAG detection
Procedure: Binding of purified monovalent anti-GITR Nanobodies to human GITR expressed on activated T cells was evaluated in flow cytometry. For this purpose, PBMCs from healthy donors were cultured with Dynabeads® Human T-Activator CD3/CD28 (Gibco—Life Technologies #11131D) for 7 days in a 1/2 bead/cell ratio.
Dilution series of Nanobodies starting from […] were applied to the cells. Nanobodies were allowed to associate for 30 minutes at 4° C. in FACS buffer (PBS supplemented with 10% FBS and 0.05% azide). Cells were washed by centrifugation and probed with anti-FLAG antibodies (Sigma F1804) for 30 minutes at 4° C., to detect bound Nanobody. […] Cells were washed and incubated with TOPRO3 to stain for dead cells which were subsequently removed during the gating procedure. The cells were then analysed via a BD FACSArray.

EC50, HEK293_NF-κB luc reporter (human GITR [1]) [nM] | Efficacy (%), human GITR ligand = 100%, HEK293_NF-κB luc reporter (human GITR [1]) [%] | EC50, IFN-γ read-out, human T cell activation assay (human GITR [2]) [nM] | Maximal efficacy (%), human GITR ligand = 100%, IFN-γ read-out (human GITR [2]) [%] | Kd [3] [nM] | koff [3] [s⁻¹] | kon [3] [M⁻¹ s⁻¹] | EC50 (human GITR [4]) [nM] | Binder
0.0118 | 146 | 0.0515 | 108 | – | – | – | – | A023100129 (VHH) DVQLVESGGGVVQPGGSLRLSCAASGSIFSIDSMGWYRQAPGKQRELVAAITSSTNYADSVKGRFTISRDNSKNTVYLQMNSLRPEDTALYYCNLEGQAGWGTALINYWGQGTLVTVSSGGGGSGGGSEVQLVESGGGVVQPGGSLRLSCAASGSIFSIDSMGWYRQAPGKQRELVAAITSSTNYADSVKGRFTISRDNSKNTVYLQMNSLRPEDTALYYCNLEGQAGWGTALINYWGQGTLVTVSSGGGGSGGGSEVQLVESGGGVVQPGGSLRLSCAASGSIFSIDSMGWYRQAPGKQRELVAAITSSTNYADSVKGRFTISRDNSKNTVYLQMNSLRPEDTALYYCNLEGQAGWGTALINYWGQGTLVTVSSGGGGSGGGSEVQLVESGGGVVQPGGSLRLSCAASGSIFSIDSMGWYRQAPGKQRELVAAITSSTNYADSVKGRFTISRDNSKNTVYLQMNSLRPEDTALYYCNLEGQAGWGTALINYWGQGTLVTVSSGGGGSGGGSEVQLVESGGGVVQPGGSLRLSCAASGSIFSIDSMGWYRQAPGKQRELVAAITSSTNYADSVKGRFTISRDNSKNTVYLQMNSLRPEDTALYYCNLEGQAGWGTALINYWGQGTLVTVSSGGGGSGGGGSGGGGSGGGGSGGGGSGGGGSGGGGSEVQLVESGGGVVQPGGSLRLSCAASGFTFRSFGMSWVRQAPGKGPEWVSSISGSGSDTLYADSVKGRFTISRDNSKNTLYLQMNSLRPEDTALYYCTIGGSLSRSSQGTLVTVSSA
– | – | – | – | 2.6 | 0.0027 | 1.1e+06 | 0.61 | A0231004B01 (VHH, Monovalent Nanobody expressed in E. coli with a triple Flag, HIS6 tag; also called A0231PMP004B01; PA0231PMP004B01.1; not shown: C-terminal triple FLAG and HIS6 tag) VHH: EVQLVESGGGLVQPGGSLRLSCAASGSIFSIDSMGWYRQAPGKQRELVAAITSSTNYADSVKGRFTISRDNAKNTVYLQMNSLKPEDTAVYYCNLEGQAGWGTALINYWGKGTLVTVSS
– | – | – | – | 3.4 | 0.0023 | 680000 | 0.79 | A0231005A03 (VHH, Monovalent Nanobody expressed in E. coli with a triple Flag, HIS6 tag; also called A0231PMP005A03; PA0231PMP005A03.1; not shown: C-terminal triple FLAG and HIS6 tag) VHH: EVQLVESGGGLVQPGGSLRLSCAASETIFSIDSMAWYRQAPGKQRELVAAITGGGSPNYADSVKGRFTISSDVAKRTVYLQMNSLKPEDTAVYYCNAEGQAGWGTALMDYWGKGTLVTVSS
– | – | – | – | 4.6 | 0.0029 | 630000 | 1.3 | A0231003D11 (VHH, Monovalent Nanobody expressed in E. coli with a triple Flag, HIS6 tag; also called A0231PMP003D11; PA0231PMP003D11.1; not shown: C-terminal triple FLAG and HIS6 tag) VHH: EVQLVESGGGLVQAGESLRLSCAASGSIFSIDAMGWYRQAPGKQRELVAEISDHTTYGDSVKGRFTISRGNAENTVALQMNSLKPEDTGVYYCNVHHQRGWGTSITVTWGQGTQVTVSS
– | – | – | – | 16 | 0.008 | 490000 | 21 | A0231033B02 (VHH, Monovalent Nanobody expressed in E. coli with a triple Flag, HIS6 tag; also called A0231PMP033B02; PA0231PMP033B02.1; not shown: C-terminal triple FLAG and HIS6 tag) VHH: EVQLVESGGGLVQPGGSLRLSCAASGTIFSISTMGWYRQAPGKQREVVAVTSGFSTNYSSAVKGRFTLSRDPAKNTVFLQMNSLQPEDTATYYCNAYLSLAWRDPDRDYWGQGTQVTVSS
– | – | – | – | 24 | 0.00097 | 41000 | 23 | A0231052A08 (VHH, Monovalent Nanobody expressed in E. coli with a triple Flag, HIS6 tag; also called A0231PMP052A08; PA0231PMP052A08.1; not shown: C-terminal triple FLAG and HIS6 tag) VHH: EVQLVESGGGLVQAGGSLRLSCVASGSISSITAMGWHRQAPGAQREGVAVISRSGATMLVDSVKGRFTIVQDNAKNTVYLQMNSLKVEDTAVYGCSAITQGRTYWGQGTLVTVSS
– | – | – | – | 2.5 | 0.00067 | 270000 | 0.54 | A0231034A08 (VHH, Monovalent Nanobody expressed in E. coli with a triple Flag, HIS6 tag; also called A0231PMP034A08; PA0231PMP034A08.1; not shown: C-terminal triple FLAG and HIS6 tag) VHH: EVQLVESGGDLVQPGGSLRLSCAASGSVFSINDMGWFRQAPGKQRELVADIISRGVTNYADSVKGRFTISGDPAKNTVYLQMNSLKPEDTAVYYCNAHISTGWGRPHNNYWGQGTQVTVSS
